Experiments:
[1] = biological target: T1, activin A (UniProt P08476 311-426); experiment: Biacore SPR
T1 sequence (looked up): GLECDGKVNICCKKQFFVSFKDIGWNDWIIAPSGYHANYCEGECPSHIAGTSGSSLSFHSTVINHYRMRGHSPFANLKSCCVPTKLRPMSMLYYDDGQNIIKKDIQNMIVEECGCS
Protocol: (§1) Ligands were injected and allowed to flow over the captured receptor protein.

[2] = biological target: T2, activin B (UniProt P09529 293-407); experiment: Biacore SPR
T2 sequence (looked up): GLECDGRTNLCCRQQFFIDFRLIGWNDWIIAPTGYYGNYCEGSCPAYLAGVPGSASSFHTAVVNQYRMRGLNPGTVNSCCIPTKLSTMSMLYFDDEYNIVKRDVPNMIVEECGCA
Protocol: as §1

[3] = biological target: BMP2 (UniProt P12643 283-396); experiment: Biacore SPR
Chain of BMP2 (P12643 283-396 limits assumed): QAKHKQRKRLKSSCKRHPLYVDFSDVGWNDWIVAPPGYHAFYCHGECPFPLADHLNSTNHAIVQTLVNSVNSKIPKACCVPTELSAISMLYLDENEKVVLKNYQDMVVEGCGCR
Protocol: as §1

[4] = biological target: T3, BMP4 (UniProt P12644 293-408); experiment: Biacore SPR
T3 sequence (looked up): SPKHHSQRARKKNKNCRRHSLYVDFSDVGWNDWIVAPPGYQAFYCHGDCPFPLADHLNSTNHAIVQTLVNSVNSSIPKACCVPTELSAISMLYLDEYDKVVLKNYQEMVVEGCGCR
Protocol: as §1

[5] = biological target: T4, BMP5 (UniProt P22003 317-454, limits assumed); experiment: Biacore SPR
T4 sequence (looked up): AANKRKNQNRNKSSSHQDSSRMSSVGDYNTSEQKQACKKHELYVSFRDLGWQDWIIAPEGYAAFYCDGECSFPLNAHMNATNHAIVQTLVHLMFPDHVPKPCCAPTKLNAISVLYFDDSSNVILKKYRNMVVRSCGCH
Protocol: as §1

[6] = biological target: T5, BMP6 (UniProt P22004 382-513, limits assumed); experiment: Biacore SPR
T5 sequence (looked up): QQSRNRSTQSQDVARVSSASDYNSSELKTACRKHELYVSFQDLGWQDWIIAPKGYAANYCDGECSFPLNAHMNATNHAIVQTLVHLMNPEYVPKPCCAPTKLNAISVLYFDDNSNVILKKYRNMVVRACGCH
Protocol: as §1

[7] = biological target: T6, BMP7 (UniProt P18075 293-431); experiment: Biacore SPR
T6 sequence (looked up): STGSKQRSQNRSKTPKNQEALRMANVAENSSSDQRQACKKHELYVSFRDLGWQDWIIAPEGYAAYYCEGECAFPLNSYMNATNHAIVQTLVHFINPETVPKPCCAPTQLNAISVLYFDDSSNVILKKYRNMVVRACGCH
Protocol: as §1

[8] = biological target: T7, BMP10 (UniProt O95393 317-424); experiment: Biacore SPR
T7 sequence (looked up): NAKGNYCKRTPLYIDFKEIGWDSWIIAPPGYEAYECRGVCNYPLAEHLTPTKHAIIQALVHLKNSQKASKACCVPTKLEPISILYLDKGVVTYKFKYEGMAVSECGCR
Protocol: as §1

[9] = biological target: T8, GDF3 (UniProt Q9NR23 251-364); experiment: Biacore SPR
T8 sequence (looked up): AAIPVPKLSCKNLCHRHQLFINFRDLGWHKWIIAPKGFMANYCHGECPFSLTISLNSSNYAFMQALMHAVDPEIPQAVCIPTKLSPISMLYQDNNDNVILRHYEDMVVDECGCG
Protocol: as §1

[10] = biological target: T9, GDF5 (UniProt P43026 382-501); experiment: Biacore SPR
T9 construct: also called BMP14
T9 sequence (looked up): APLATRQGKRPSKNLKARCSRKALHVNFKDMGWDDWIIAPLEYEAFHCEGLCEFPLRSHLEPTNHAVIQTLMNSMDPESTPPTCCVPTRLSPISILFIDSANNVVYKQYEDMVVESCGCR
Protocol: as §1

[11] = biological target: T10, GDF6 (UniProt Q6KF10 336-455, limits assumed); experiment: Biacore SPR
T10 construct: also called BMP13
T10 sequence (looked up): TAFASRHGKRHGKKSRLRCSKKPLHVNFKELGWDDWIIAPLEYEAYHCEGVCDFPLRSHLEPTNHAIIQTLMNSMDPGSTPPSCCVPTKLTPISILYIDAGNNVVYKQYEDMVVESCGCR
Protocol: as §1

[12] = biological target: T11, GDF7 (UniProt Q7Z4P5 322-450, limits assumed); experiment: Biacore SPR
T11 construct: also called BMP12
T11 sequence (looked up): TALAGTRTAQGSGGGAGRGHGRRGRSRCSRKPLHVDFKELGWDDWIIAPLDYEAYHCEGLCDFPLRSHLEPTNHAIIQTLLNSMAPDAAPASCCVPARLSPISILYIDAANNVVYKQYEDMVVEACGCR
Protocol: as §1

[13] = biological target: T12, GDF8 (UniProt O14793 267-375); experiment: Biacore SPR
T12 construct: also called myostatin
T12 sequence (looked up): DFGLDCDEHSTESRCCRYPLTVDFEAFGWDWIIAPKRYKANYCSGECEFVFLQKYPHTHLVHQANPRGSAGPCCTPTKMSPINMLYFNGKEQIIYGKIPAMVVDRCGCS
Protocol: as §1

[14] = biological target: T13, GDF11 (UniProt O95390 299-407); experiment: Biacore SPR
T13 construct: also called BMP11
T13 sequence (looked up): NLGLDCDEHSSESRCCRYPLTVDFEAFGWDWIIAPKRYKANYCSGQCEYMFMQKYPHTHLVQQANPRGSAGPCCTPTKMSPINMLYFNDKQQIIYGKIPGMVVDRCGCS
Protocol: as §1

[15] = biological target: T14, BMP9 (UniProt Q9UK05 320-429); experiment: Biacore SPR; kinetics indeterminate (transient)
T14 construct: also called GDF2
T14 sequence (looked up): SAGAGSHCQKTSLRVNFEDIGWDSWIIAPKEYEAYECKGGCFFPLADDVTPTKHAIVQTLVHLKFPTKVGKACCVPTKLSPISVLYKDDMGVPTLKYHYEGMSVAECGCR
Protocol: as §1

Kd [1]: 150 pM | koff [1]: 0.005 s⁻¹ | kon [1]: 3.4e+07 M⁻¹ s⁻¹ | Kd [2]: 200 pM | koff [2]: 0.00057 s⁻¹ | kon [2]: 2.8e+06 M⁻¹ s⁻¹ | Kd [3]: 1 pM | koff [3]: 1.1e-05 s⁻¹ | kon [3]: 8e+06 M⁻¹ s⁻¹ | Kd [4]: 3 pM | koff [4]: 6.5e-06 s⁻¹ | kon [4]: 2.6e+06 M⁻¹ s⁻¹ | Kd [5]: 640 pM | koff [5]: 0.00058 s⁻¹ | kon [5]: 900000 M⁻¹ s⁻¹ | Kd [6]: 15 pM | koff [6]: 0.00029 s⁻¹ | kon [6]: 2e+07 M⁻¹ s⁻¹ | Kd [7]: 1900 pM | koff [7]: 0.0015 s⁻¹ | kon [7]: 820000 M⁻¹ s⁻¹ | Kd [8]: 31 pM | koff [8]: 0.00094 s⁻¹ | kon [8]: 3e+07 M⁻¹ s⁻¹ | Kd [9]: 5900 pM | koff [9]: 0.082 s⁻¹ | kon [9]: 1.4e+07 M⁻¹ s⁻¹ | Kd [10]: 70 pM | koff [10]: 0.00083 s⁻¹ | kon [10]: 1.2e+07 M⁻¹ s⁻¹ | Kd [11]: 1600 pM | koff [11]: 0.00045 s⁻¹ | kon [11]: 280000 M⁻¹ s⁻¹ | Kd [12]: 52 pM | koff [12]: 0.0004 s⁻¹ | kon [12]: 7.5e+06 M⁻¹ s⁻¹ | Kd [13]: 310 pM | koff [13]: 0.00092 s⁻¹ | kon [13]: 3e+06 M⁻¹ s⁻¹ | Kd [14]: 66 pM | koff [14]: 0.0011 s⁻¹ | kon [14]: 1.6e+07 M⁻¹ s⁻¹ | Kd [15]: > 33000 pM
B1: ActRIIB-Fc:ALK3-Fc heterodimer (Fc fusion)
chain 1: GRGEAETRECIYYNANWELERTNQSGLERCEGEQDKRLHCYASWRNSSGTIELVKKGCWLDDFNCYDRQECVATEENPQVYFCCCEGNFCNERFTHLPEAGGPEVTYEPPPTAPTGGGTHTCPPCPAPELLGGPSVFLFPPKPKDTLMISRTPEVTCVVVDVSHEDPEVKFNWYVDGVEVHNAKTKPREEQYNSTYRVVSVLTVLHQDWLNGKEYKCKVSNKALPAPIEKTISKAKGQPREPQVYTLPPSRKEMTKNQVSLTCLVKGFYPSDIAVEWESNGQPENNYKTTPPVLKSDGSFFLYSKLTVDKSRWQQGNVFSCSVMHEALHNHYTQKSLSLSPGK
chain 2: GAQNLDSMLHGTGMKSDSDQKKSENGVTLAPEDTLPFLKCYCSGHCPDDAINNTCITNGHCFAIIEEDDQGETTLASGCMKYEGSDFQCKDSPKAQLRRTIECCRTNLCNQYLQPTLPPVVIGPFFDGSIRTGGGTHTCPPCPAPELLGGPSVFLFPPKPKDTLMISRTPEVTCVVVDVSHEDPEVKFNWYVDGVEVHNAKTKPREEQYNSTYRVVSVLTVLHQDWLNGKEYKCKVSNKALPAPIEKTISKAKGQPREPQVYTLPPSREEMTKNQVSLTCLVKGFYPSDIAVEWESNGQPENNYDTTPPVLDSDGSFFLYSDLTVDKSRWQQGNVFSCSVMHEALHNHYTQKSLSLSPG
notes: C-terminal Lys optional; also called ActRIIB-Fc:ALK3-Fc heterodimeric complex

— US20190225669A1 (ACCELERON PHARMA, published 2019)
